In US20220298258A1 (Bristol-Myers Squibb, published 2022):

T1: fluorescently-conjugated human VISTA dextramer (a streptavidin dextramer loaded with monobiotinylated … (human, UniProt Q9H7M9 33-194, monobiotinylated (avi-tagged in Example 6); loaded on a fluorescently-conjugated streptavidin dextramer)
T1 construct: Multimeric reagent: many biotinylated VISTA molecules on a streptavidin dextramer; also called VISTA dextramers; dextramer loaded with recombinant human avi-tagged VISTA
T1 sequence (looked up): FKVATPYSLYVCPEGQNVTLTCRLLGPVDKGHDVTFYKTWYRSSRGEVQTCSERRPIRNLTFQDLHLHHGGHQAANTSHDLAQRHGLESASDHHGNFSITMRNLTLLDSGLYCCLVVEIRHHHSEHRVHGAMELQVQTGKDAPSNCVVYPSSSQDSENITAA


Tests used:
[1] = target: Human PSGL-1 (P-Selectin Glycoprotein Ligand 1) on primary human T cells / PBMC lymphocytes (human) (UniProt Q14242); test: flow cytometry; inhibition of VISTA dextramer binding to activated human CD4+ T cells, pH 6.0
[2] = target: T1, fluorescently-conjugated human VISTA …; test: as above
Experimental: The ability of soluble PSGL-1 to disrupt VISTA dextramer binding to T cells was assessed by incubating activated T cells with fluorescently-conjugated VISTA dextramers (a streptavidin dextramer loaded with a sub-optimal molar ratio of monobiotinylated recombinant human VISTA molecules) in Hanks's Balanced Salt Solution at pH 6.0 and in the presence of titrated concentrations of a control (i.e., non-VISTA or PSGL-1 specific) antibody (dots), recombinant human PSGL-1-Fc fusion protein (triangles), or recombinant human P-selectin (R&D Systems, diamonds). The recombinant human PSGL-1 Fc fusion molecule was obtained from R&D Systems Catalog No. 3345-PS, and comprises the PSGL-1 ECD sequence shown in SEQ ID NO: 18, comprising positions 42-295 of a human PSGL-1 sequence of accession number AA50061 coupled at its C-terminal to an IEGRMD linker sequence (SEQ ID NO: 19) followed by amino acids P100 to K330 of human IgG1. After incubation, the binding of the VISTA dextramer to the T cells was measured by flow cytometry. IC50 values were calculated via nonlinear regression in Prism software (GraphPad). The results, which are shown in FIG. 3 and Table 1, indicate that PSGL-1 and P-selectin inhibit binding of VISTA to the activated CD4+ T cells in a dose dependent manner at acidic pH.

Row | IC50 [1] [nM] | IC50 [2] [nM] | Molecule
1 | 101 | – | recombinant human P-selectin (R&D Systems) (from UniProt P16109 42-771) (receptor)
2 | – | 20.5 | recombinant human PSGL-1-Fc fusion protein (R&D Systems Catalog No. 3345-PS) (Fc fusion, Bought reagent; also called hPSGL-1-Fc; humPSGL-1-Fc; not shown: human IgG1, amino acids P100 to K330) QATEYEYLDYDFLPETEPPEMLRNSTDTTPLTGPGTPESTTVEPAARRSTGLDAGGAVTELTTELANMGNLSTDSAAMEIQTTQPAATEAQTTPLAATEAQTTRLTATEAQTTPLAATEAQTTPPAATEAQTTQPTGLEAQTTAPAAMEAQTTAPAAMEAQTTPPAAMEAQTTQTTAMEAQTTAPEATEAQTTQPTATEAQTTPLAAMEALSTEPSATEALSMEPTTKRGLFIPFSVSSVTHKGIPMAASNLSVIEGRMD
